Measurements taken from PMC11046469, “Leveraging a Phage-Encoded Noncanonical Amino Acid: A Novel Pathway to Potent and Selective Epigenetic Reader Protein Inhibitors” (ACS Central Science, 2024).
Where a SMILES comes first, the peptide text is derived from it. The star is where a group is joined. FITC = O=C1OC2(c3ccc(O)cc3Oc3cc(O)ccc32)c2ccc(NC(=S)*)cc21; Oxazole(5-CO) = O=C(c1cnco1)*; Ahx = NCCCCCC(=O)O

How the values were obtained:
MOLM-13 cells = type: cell-based
Excerpt: (§1) For peptides developed for intracellular targets, a common concern is their cellular permeability to engage the targets. For the ENL YEATS domain that is a nuclear protein, its inhibitors will also need to translocate to the nucleus to exert their inhibition activities. […] We attached FITC to tENL-S1o to afford FITC-tENL-S1o that could be fluorescently imaged. […] Although results from this pilot study were very encouraging, the conjugated FITC could have assisted the cellular penetration process. A more accurate assay was needed for the use of unmodified peptides. […] There are three components required to gauge the peptide inhibitory potency for ENL expressed in cells through NanoBRET assays: (1) an ENL YEATS-NanoLuc luciferase fusion protein, (2) a NanoLuc luciferase substrate, and (3) a fluorescent tracer that binds specifically and reversibly to the reader channel of ENL YEATS. […] The cellular potency of peptides can be determined through the decrease in BRET as test peptides engage the ENL YEATS domain and displace the tracer. […]
(§2) Fluorescence microscopy study with FITC-6AHX-tENL-S1o: […]
(§3) Cell proliferation assays were performed in 96-well tissue culture plates (Corning). […] Cell numbers were determined every 3–4 days using the Countess automated cell counter (Invitrogen). […]

MV4-11 cells = type: cell-based
Excerpt: as §1, §2, §3

ENL YEATS (His-ENL) = target: T1, ENL YEATS (His-ENL) (Homo sapiens, UniProt Q03111); test: Fluorescence polarization binding of tracer to ENL YEATS
T1 construct: (aa 1−148) was cloned in pET19b; made in house; host or cells: E. coli BL21(DE3pLysS)
T1 sequence (Q03111 1-148): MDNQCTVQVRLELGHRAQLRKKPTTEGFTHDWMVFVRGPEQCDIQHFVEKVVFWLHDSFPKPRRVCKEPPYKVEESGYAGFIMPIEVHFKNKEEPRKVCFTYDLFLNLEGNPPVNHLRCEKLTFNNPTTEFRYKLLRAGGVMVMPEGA
Experimental: Meanwhile, we established a stable cell line for NanoLuc-ENL YEATS expression. The binding of SR-0813T to […] was also validated using a fluorescence polarization assay (Figure S16).
Fluorescence Polarization:
Tracer 1 (10 nM) and varying concentrations of His-ENL (14 nM to 7.2 µM) were mixed in a 200 µL of assay buffer (50 mM HEPES, 100 mM NaCl, 0.01% Tween20, pH: 7.4). The solutions were incubated in black 96-well plates and then measured fluorescence polarization in a microplate reader at Ex/Em = 530 nm/590 nm.
NanoBRET Assay to Validate ENL Inhibitors:
HEK293T/17 cells harboring pCDH-EF1-Nluc-ENL were cultivated in growth medium overnight at 37 °C and 5% CO2. […] Following a quick spin (100 rcf, 1 min), a plate reader equipped with the LUM 610 LP 450 module was used to measure the emissions at 450 nm (donor) […]
The final BRET ratio was calculated by dividing the acceptor emission (610 nm) by the donor emission (450 nm). The BRET ratio was calculated using the following equation: […]
MOLM-13 cells were incubated with test compound (tENL-S1f at a final concentration of 10 and 50 μM) and control (DMSO at a final concentration of 0.1%) for 24 hours. […] Quantitative real-time PCR (qRT-PCR) analyses were performed in triplicate using SYBR Select Master Mix (Applied Biosystems) […]
Gene expressions were calculated following normalization to B2M levels using the comparative C t (cycle threshold) method. […]

| Kd (ENL YEATS (His-ENL)) [nM] | Structure (SMILES) | cellular fluorescence (cell penetration) (MOLM-13 cells) | cellular fluorescence (cell penetration) (MV4-11 cells) |
| --- | --- | --- | --- |
|  | CC(C)[C@H](NC(=O)CCCCCNC(=S)Nc1ccc2c(c1)C(=O)OC21c2ccc(O)cc2Oc2cc(O)ccc21)C(=O)N[C@@H](Cc1ccc(O)cc1)C(=O)N[C@@H](CS)C(=O)N[C@@H](Cc1ccc(O)cc1)C(=O)N[C@@H](CCCCNC(=O)c1cnco1)C(N)=O [FITC-tENL-S1o] ({FITC-Ahx}-VYCYK(Oxazole(5-CO))-NH2) | strong fluorescence within the cells | strong fluorescence within the cells |
| 1100 | O=C(CCC1=[N+]2C(=Cc3ccc(-c4ccc[nH]4)n3[B-]2(F)F)C=C1)NCCCC(=O)Nc1cccc(-c2cn3cc(C(=O)NC4CCC4)ccc3n2)c1 [SR-0813T] |  |  |
